The text below walks through data of PMC4513076.

Series [1] has as its target T1, IolR (Salmonella enterica) (UniProt A0A0H3NJ61).
T1 sequence: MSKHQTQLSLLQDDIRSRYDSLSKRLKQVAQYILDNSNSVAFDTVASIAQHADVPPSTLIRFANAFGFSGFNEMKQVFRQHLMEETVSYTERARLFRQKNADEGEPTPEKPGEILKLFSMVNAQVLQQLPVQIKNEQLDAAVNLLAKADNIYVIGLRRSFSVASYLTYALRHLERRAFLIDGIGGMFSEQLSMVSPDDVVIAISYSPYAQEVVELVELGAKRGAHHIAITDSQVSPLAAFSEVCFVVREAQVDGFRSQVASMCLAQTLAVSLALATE
The series can be described thus: EMSA. (In general: Mobility shift assays separate free from complexed probe on a gel.)

Series [2] has as its target IolR, myo-inositol catabolism repressor (RpiR-like transcriptional repressor) of Salmonella enterica (Salmonella enterica serovar Typhimurium LT2). Put plainly: SEC. (In general: Size exclusion chromatography separates by hydrodynamic size, large species first.)
A further series deals with IolR (Salmonella enterica, UniProt A0A0H3NJ61 1-277). Put plainly: EMSA.

With “CATGCATGATACTCTAATAGAACGAAAATTTCGTAAATAACCATATTAGCACAAATGAACTGAACATACAGTTAACAACATTCAAATTGCGCTGTGGTTACCTTCAGTACAGAATTTGCTGGCGGGCTGGGTTCTGAGCAATCTGAATCTGACCGCATAAATGCGACAGGATCAG (double strand) [PiolR (175 nt)]”, in series [1], the binding entry was “binds”.

“CATACCGGTTTCCCTTACACAGAAGTGACCGGATAATTTTAAACGCTTTCGCTATTTTATGCTGTGACGTTTCCCGGATGTTGCGTTTTTCCTGCCAGATAGCGCGTTTTGAAACGGGTGAAATGTTCACCTAAACTGGTTGCCGCCTCG (double strand) [Ppat (150 nt)]”: the binding entry in series [1] is given as “binds”.

Broadly, the stoichiometry N is a count of units in the complex or per binding partner. Regarding “IolR, myo-inositol catabolism repressor (RpiR-like transcriptional repressor) of Salmonella enterica (natural protein)”, the stoichiometry N in series [2] was 4.

B1: Ppat45 (dsDNA)
DNA 1: CAACCAGTTTAGGTGAACATTTCACCCGTTTCAAAACGCGCTATCT
DNA 2: AGATAGCGCGTTTTGAAACGGGTGAAATGTTCACCTAAACTGGTTG
Consider B1, for which the binding result in the series with IolR was “binds”.
